Here are results for one substance from patent publication US10822385B2, “EGF(A) analogues with fatty acid substituents” (Novo Nordisk A/S, priority 2016, dated 2020).

For the experiment, the target named is T1, hPCSK9 (Homo sapiens, UniProt Q8NBP7).
T1 construct: purchased Sino Biologicals, China; host or cells: injected into BalBC or NMRI mice
In words: hPCSK9 challenge model, hepatic LDL-R expression in mice (Western Blot). Conditions: inhibitor 22 nmol/kg, hPCSK9 0.4 mg/kg i.v., healthy control = 100%, hPCSK9 alone = 0%. In kind it is in vivo, mouse.

T1 sequence (Q8NBP7 153-692): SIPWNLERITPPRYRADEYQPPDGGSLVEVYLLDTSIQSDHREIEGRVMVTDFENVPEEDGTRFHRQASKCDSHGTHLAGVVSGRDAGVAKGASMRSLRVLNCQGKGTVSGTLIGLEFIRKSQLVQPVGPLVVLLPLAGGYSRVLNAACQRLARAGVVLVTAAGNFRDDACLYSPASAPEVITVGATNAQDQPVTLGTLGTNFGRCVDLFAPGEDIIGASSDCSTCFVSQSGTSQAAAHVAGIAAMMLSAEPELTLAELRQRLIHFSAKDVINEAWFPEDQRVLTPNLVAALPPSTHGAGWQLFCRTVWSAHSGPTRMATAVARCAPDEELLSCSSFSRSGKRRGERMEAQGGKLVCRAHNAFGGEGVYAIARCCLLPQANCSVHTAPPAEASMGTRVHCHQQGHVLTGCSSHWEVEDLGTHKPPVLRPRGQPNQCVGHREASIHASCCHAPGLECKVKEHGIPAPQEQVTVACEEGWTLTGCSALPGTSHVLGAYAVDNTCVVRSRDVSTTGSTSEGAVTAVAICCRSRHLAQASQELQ
Protocol: The aim of this study was to show the change in the LDL receptor expression level in mouse liver in response to inhibiting the action of intravenously injected hPCSK9 with an anti-PCSK9 peptide.
Healthy male BalBC or NMRI mice (Charles River, Germany) are injected with an anti-PCSK9 peptide, either s.c. or i.v. 15-120 minutes before injecting hPCSK9 (Sino Biologicals, China) intravenously in the tail vein at a dose of 0.4 mg/kg. Sixty minutes after the injection of hPCSK9, the animals are anaesthetised in isoflurane and euthanised by cervical dislocation. The liver is then quickly excised and snapfrozen in liquid nitrogen. The livers are kept at −80 degrees celsius until analysis.
Equal protein transfer was confirmed by Ponceau S (Sigma, P7170) staining of the membranes and the membranes were further blocked in blocking buffer (TBS-T, 2% Tween). […] Quantitative analysis of chemiluminescent signals from Western blots was done with MultiGauge software (Fujifilm).
“Vehicle-vehicle” is the group of healthy controls (baseline level), “vehicle-hPCSK9” is the group injected with hPCSK9 alone.
In Table 8, data are presented as percentage change in relation to the window between baseline level in healthy control animals (set to 100%) and the level after down regulation by hPCSK9 alone (set to 0%).

For “Alirocumab: anti-PCSK9 antibody, control molecule in the hPCSK9 challenge model”, the “Percentage of baseline (hepatic LDL-R expression)” value amounted to 157%.
